# Reference: ChEMBL document CHEMBL5233245, “Monocarboxylate transporter 1 and 4 inhibitors as potential therapeutics for treating solid tumours: A review with structure-activity relationship insights” (Eur J Med Chem, 2020)
# B1: Monocarboxylate transporter 1 (Rattus norvegicus), P53987 (protein)
# chain: MPPAIGGPVGYTPPDGGWGWAVVVGAFISIGFSYAFPKSITVFFKEIEIIFSATTSEVSWISSIMLAVMYAGGPISSILVNKYGSRPVMIAGGCLSGCGLIAASFCNTVQELYFCIGVIGGLGLAFNLNPALTMIGKYFYKKRPLANGLAMAGSPVFLSTLAPLNQAFFGIFGWRGSFLILGGLLLNCCVAGSLMRPIGPQQGKVEKLKSKESLQEAGKSDANTDLIGGSPKGEKLSVFQTVNKFLDLSLFTHRGFLLYLSGNVVMFFGLFTPLVFLSNYGKSKHFSSEKSAFLLSILAFVDMVARPSMGLAANTRWIRPRVQYFFAASVVANGVCHLLAPLSTTYVGFCIYAGVFGFAFGWLSSVLFETLMDLVGPQRFSSAVGLVTIVECCPVLLGPPLLGRLNDMYGDYKYTYWACGVILIIAGLYLFIGMGINYRLVAKEQKAEEKKRDGKEDETSTDVDEKPKKTMKETQSPAPLQNSSGDPAEEESPV
# B2: Monocarboxylate transporter 2 (Rattus norvegicus), Q63344 (protein)
# chain: MPSESSVKATAAPPPFPLPPDGGWGWVVVCASFISIGFSYAFPKAVTVFFNDIKDIFKTTSSQIAWISSIMLAVMYAGGPISSVLVNNYGSRPVVIVGGLLCCTGMILASFSSSVIELYLTVGFIGGLGLAFNLQPALTIIGKYFYRKRPLANGFAMAGSPVFLSTLAPFNQFLFNSYGWKGSFLILGAIFLHSCVAGCLMRPVGPSPRAAKSKSKVGSRQDSSTKRLSKVSTAEKINRFLDFGLFTHRGFLIYLSGNVVLFLGMFAPIIFLAPYAKDKGVDDYNSAFLLSVMAFTDMFARPSVGLIANTSLIRPRIQYLFSVAIMFTGICHLLCPLAHSYTALVVYVIFFGIGFGSISSLLFECLMDQVGASRFSSAVGLVTIVECCPVLFGPPLAGKLLDITGQYKYLYIASGIVVLSSGIYLLICNAINYRLLEKERKREKARRKKSASQASKEMEALSRSKQDDVTVKVSNTHNPPSDRDKESSI
# B3: Monocarboxylate transporter 3 (Gallus gallus), Q90632 (protein)
# chain: MGRADPEEGQLPAPVKPPDGGWGWIVLFGCFVITGFSYAFPKAVSVYFKELMKDFHVGYSDTAWISSIMLAMLYGTGPVCSIMVNQFGCRPVMLIGGLLASSGMILASFTTNIIELYLTAGVLTGLGMALNFQPSLIMLGTYFDKRRPLANGLAAAGSPVFLSSLSPLGQVLLEKFGWRGGFLIMGGLLLNCCTCGAVMRPLDAGMKRKTEKAQDKYEAKEMLPMGGKSEEGISTTDGTKKTKKAKKKPKKGKKLLDFSIFSNRGFIIYTISKFILVLGLFVPPILLVNYAKDTGVPDTEAAFLLSIIGFIDIFARPACGMVAGLKWVRPHVAYLFSFAMLFNGLTDICSARASNYTGLVIFCVFFGISYGMVGALQFEVLMAIVGSQKFSSAIGLVLLIEAFAVLIGPPSAGRLVDALKNYEVIFYLAGSEVVLSALFLAMATYCCLNRGKKTPPPEKNPSAGGGSDTEEAESDVQEAEEHSSDNHQPAHGTDKATVAANEEANHVEDEQSGEGGRCPEADGEVSSRAGCNADQTVERDSF
# B4: Monocarboxylate transporter 4 (Rattus norvegicus), O35910 (protein)
# chain: MGGAVVDEGPTGIKAPDGGWGWAVLFGCFIITGFSYAFPKAVSVFFKELMHEFGIGYSDTAWISSILLAMLYGTGPLCSMCVNRFGCRPVMLVGGLFASLGMVAASFCRSIIQIYLTTGVITGLGLALNFQPSLIMLNRYFNKRRPMANGLAAAGSPVFLCALSPLGQLLQDHYGWRGGFLILGGLLLNCCVCAALMRPLVAPQASGGAEPHGPQRPSPRLLDLSVFRDRGFLIYAVAASIMVLGLFVPPVFVVSYAKDMGVPDTKAAFLLTILGFIDIFARPTAGFITGLKKVRPYSVYLFSFAMFFNGFTDLTGSTASDYGGLVVFCIFFGISYGMVGALQFEVLMAIVGTQKFSSAIGLVLLLEAVAVLIGPPSGGKLLDATKVYKYVFILAGAEVLTSSLVLLLGNFFCIGKRKRPEVTKPEEVASEEEKLHKPPVDVRVDSREVEHFLKAEPEKNGEVVHTPETSV
# B5: Monocarboxylate transporter 4 (Homo sapiens), O15427 (protein)
# chain: MGGAVVDEGPTGVKAPDGGWGWAVLFGCFVITGFSYAFPKAVSVFFKELIQEFGIGYSDTAWISSILLAMLYGTGPLCSVCVNRFGCRPVMLVGGLFASLGMVAASFCRSIIQVYLTTGVITGLGLALNFQPSLIMLNRYFSKRRPMANGLAAAGSPVFLCALSPLGQLLQDRYGWRGGFLILGGLLLNCCVCAALMRPLVVTAQPGSGPPRPSRRLLDLSVFRDRGFVLYAVAASVMVLGLFVPPVFVVSYAKDLGVPDTKAAFLLTILGFIDIFARPAAGFVAGLGKVRPYSVYLFSFSMFFNGLADLAGSTAGDYGGLVVFCIFFGISYGMVGALQFEVLMAIVGTHKFSSAIGLVLLMEAVAVLVGPPSGGKLLDATHVYMYVFILAGAEVLTSSLILLLGNFFCIRKKPKEPQPEVAAAEEEKLHKPPADSGVDLREVEHFLKAEPEKNGEVVHTPETSV
# Assays:
# [1] = substrate: CCC(=O)C(=O)O; assay: (§1) Substrate activity at rat MCT1 expressed in Xenopus laevis oocytes assessed as Km; format: cell-based; details: Oocyte
# [2] = substrate: C[C@@H](O)C(=O)O; assay: as §1; format: cell-based; details: Oocyte
# [3] = substrate: C[C@H](O)C(=O)O; assay: as §1; format: cell-based; details: Oocyte
# [4] = substrate: CC(=O)C(=O)O; assay: (§2) Substrate activity at rat MCT2 expressed in Xenopus laevis oocytes assessed as Km by Michaelis-Menten analysis; format: cell-based; details: Oocyte
# [5] = substrate: C[C@H](O)C(=O)O; assay: as §2; format: cell-based; details: Oocyte
# [6] = substrate: C[C@H](O)C(=O)O; assay: Substrate activity at chicken MCT3 expressed in yeast assessed as Km incubated for 3 mins by Michaelis-Menten analysis; details: Gallus gallus
# [7] = substrate: CCC(=O)C(=O)O; assay: (§3) Substrate activity at rat MCT4 expressed in Xenopus laevis oocytes assessed as Km; format: cell-based; details: Oocyte
# [8] = substrate: C[C@H](O)C(=O)O; assay: as §3; format: cell-based; details: Oocyte
# [9] = substrate: CC(C)(OCc1nn(Cc2ccccc2)c2ccccc12)C(=O)O; details: Homo sapiens; Oocyte; time 10.0 min
protein,measurement,setting,value
B1,Km,[1],0.2 mM
same,Km,[2],> 60 mM
same,Km,[3],3.5 mM
B2,Km,[4],0.08 mM
same,Km,[5],0.75 mM
B3,Km,[6],6 mM
B4,Km,[7],57 mM
same,Km,[8],22 mM
B5,Km,[9],2.8 mM
